The text below walks through data of paper PMC2757703.

In the data set the test system is 40S small ribosomal subunit (rabbit reticulocyte lysate) (rabbit). Nature of the data set: sucrose density gradient. Particulars: EMSA: 20 mM Tris pH 7.6, 50 mM KCl, 2.5 mM MgOAc, 0.05% NP40, 1 mM DTT, 1 ug/uL yeast tRNA, 30 C 20 min, gradients: 20 mM Tris-HCl pH 7.5, 100 mM KOAc.

With CrPV IRES RNA, the binding signal (% of labeled RNA bound to small subunit) was more than 50.

With GLV IRES RNA, the binding signal (scale: % of labeled RNA in small-subunit fractions) was 10.
